Data: article PMC3098740 (Biochemistry, 2010)

Target: T1, Methyl-coenzyme M reductase (MCR) subunit α (Methanothermobacter marburgensis …, UniProt P11558 1-550)
T1 sequence (looked up): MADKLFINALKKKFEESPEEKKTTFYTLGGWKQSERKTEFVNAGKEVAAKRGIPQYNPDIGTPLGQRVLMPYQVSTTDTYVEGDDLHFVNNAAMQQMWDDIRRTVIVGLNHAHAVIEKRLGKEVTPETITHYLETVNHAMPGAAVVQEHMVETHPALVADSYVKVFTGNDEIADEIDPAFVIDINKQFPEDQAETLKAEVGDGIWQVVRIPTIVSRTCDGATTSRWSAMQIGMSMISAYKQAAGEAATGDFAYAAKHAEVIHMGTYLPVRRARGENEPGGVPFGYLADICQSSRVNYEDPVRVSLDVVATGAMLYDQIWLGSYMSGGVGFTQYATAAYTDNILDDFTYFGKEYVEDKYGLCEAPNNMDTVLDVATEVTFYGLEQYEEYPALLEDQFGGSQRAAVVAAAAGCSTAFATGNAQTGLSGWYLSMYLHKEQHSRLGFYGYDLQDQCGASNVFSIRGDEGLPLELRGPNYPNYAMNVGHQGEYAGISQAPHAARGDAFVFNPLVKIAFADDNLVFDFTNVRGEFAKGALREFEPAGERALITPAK
Assay: crystal structure

binding result: binds
B1: Methyl-coenzyme M reductase (MCR) subunit β (natural protein, UniProt P11560 1-443, looked up)
chain: MAKFEDKVDLYDDRGNLVEEQVPLEALSPLRNPAIKSIVQGIKRTVAVNLEGIENALKTAKVGGPACKIMGRELDLDIVGNAESIAAAAKEMIQVTEDDDTNVELLGGGKRALVQVPSARFDVAAEYSAAPLVTATAFVQAIINEFDVSMYDANMVKAAVLGRYPQSVEYMGANIATMLDIPQKLEGPGYALRNIMVNHVVAATLKNTLQAAALSTILEQTAMFEMGDAVGAFERMHLLGLAYQGMNADNLVFDLVKANGKEGTVGSVIADLVERALEDGVIKVEKELTDYKVYGTDDLAMWNAYAAAGLMAATMVNQGAARAAQGVSSTLLYYNDLIEFETGLPSVDFGKVEGTAVGFSFFSHSIYGGGGPGIFNGNHIVTRHSKGFAIPCVAAAMALDAGTQMFSPEATSGLIKEVFSQVDEFREPLKYVVEAAAEIKNEI
